Measured values from publication PMC11615384, “Frequent transitions in self-assembly across the evolution of a central metabolic enzyme” (Nature Communications, 2024).
Values joined by “and” are separate entries in the source; they are usually repeats but may differ in a detail not shown here. Equal entries are not always repeated.

Key:
[1] = target: citrate synthase (type III CS) from M. sulfidovorans (M. sulfidovorans); test: mass photometry; self-assembly of the purified protein in solution; final concentration 12.5 to 50 nM; PBS or 20 mM Tris, 200 mM NaCl pH 7.5; OneMP or TwoMP
[2] = target: non-mitochondrial citrate synthase (nmCS) of Chlamydomonas reinhardtii (Chlamydomonas reinhardtii); test: as above
[3] = target: type II citrate synthase of F. taffensis (F. taffensis); test: as above
[4] = target: type II citrate synthase of C. woesi (C. woesi); test: as above
[5] = target: non-mitochondrial citrate synthase (nmCS) of Ananas comosus (Ananas comosus); test: mass photometry; with high quantities of acetyl-CoA: prediluted protein (2 µM) incubated for 10 min with the substrate, same concentration in the buffer of the gasket
[6] = target: non-mitochondrial citrate synthase (nmCS) of Ananas comosus (Ananas comosus); test: mass photometry; self-assembly of the purified protein in solution; final concentration 12.5 to 50 nM; PBS or 20 mM Tris, 200 mM NaCl pH 7.5; OneMP or TwoMP
[7] = target: citrate synthase from M. sulfidovorans W150A (M. sulfidovorans); test: as above
[8] = target: T1, CS from A. comosus (nmCS) (Ananas comosus, UniProt A0A6P5F0R3); test: mass photometry, oligomeric state shift; assay type: binding; settings: 10 min preincubation with high acetyl-CoA; octamers shift to mix of hexamers and octamers
T1 construct: gene LOC109710921; non-mitochondrial CS with C-terminal LE-HHHHHH tag, expressed in E. coli BL21(DE3); octamer (ring of four dimers); C-terminus extends to residue 513

[9] = target: CS from a Myxococcota species (a Myxococcota species); test: mass photometry; self-assembly of the purified protein in solution; final concentration 12.5 to 50 nM; PBS or 20 mM Tris, 200 mM NaCl pH 7.5; OneMP or TwoMP
[10] = target: non-mitochondrial citrate synthase (nmCS) of C. fasciculata (C. fasciculata); test: as above
[11] = target: the molecule itself; test: as above
[12] = substrate: O=C(O)CC(=O)C(=O)O; test: purified protein; assay type: biochemical, Methylophaga sulfidovorans; settings: 50 mM Tris pH 7.5, 10 mM KCl, 25 °C, 25 nM enzyme, varied substrate not named in main text
[13] = substrate: O=C(O)CC(=O)C(=O)O; test: purified protein; assay type: biochemical, Deinococcus pimensis; settings: 50 mM Tris pH 7.5, 10 mM KCl, 25 °C, 25 nM enzyme, unseparated sample, varied substrate not named in main text

T1 sequence (A0A6P5F0R3 entry or part of it): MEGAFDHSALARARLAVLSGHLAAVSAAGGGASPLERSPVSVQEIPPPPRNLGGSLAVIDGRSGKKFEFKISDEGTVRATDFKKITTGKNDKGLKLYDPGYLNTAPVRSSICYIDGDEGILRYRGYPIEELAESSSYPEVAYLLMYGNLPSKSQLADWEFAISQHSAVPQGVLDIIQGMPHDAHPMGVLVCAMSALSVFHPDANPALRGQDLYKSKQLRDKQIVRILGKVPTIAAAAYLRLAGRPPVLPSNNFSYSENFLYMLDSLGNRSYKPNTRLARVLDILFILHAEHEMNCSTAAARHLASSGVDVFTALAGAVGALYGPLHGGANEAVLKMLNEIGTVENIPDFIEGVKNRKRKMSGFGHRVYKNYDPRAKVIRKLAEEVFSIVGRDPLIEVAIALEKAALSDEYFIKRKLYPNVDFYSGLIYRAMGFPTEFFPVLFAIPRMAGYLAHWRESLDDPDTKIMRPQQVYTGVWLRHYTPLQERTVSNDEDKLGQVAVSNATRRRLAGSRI

citrate synthase (type III CS) from M. sulfidovorans (enzyme)
stoichiometry N [1]: 6

non-mitochondrial citrate synthase (nmCS) of Chlamydomonas reinhardtii (enzyme)
stoichiometry N [2]: 2

type II citrate synthase of F. taffensis (enzyme)
stoichiometry N [3]: 2

type II citrate synthase of C. woesi (enzyme)
stoichiometry N [4]: 2

non-mitochondrial citrate synthase (nmCS) of Ananas comosus (enzyme)
stoichiometry N [5]: 6 and 8
stoichiometry N [6]: 8

citrate synthase from M. sulfidovorans W150A (enzyme)
stoichiometry N [7]: 2

CC(=O)SCCNC(=O)CCNC(=O)[C@H](O)C(C)(C)COP(=O)(O)OP(=O)(O)OC[C@H]1O[C@@H](n2cnc3c(N)ncnc32)[C@H](O)[C@@H]1OP(=O)(O)O [acetyl-CoA]
mass photometry, oligomeric state shift [8]: shift the oligomeric state of the CS from A. comosus from octamers

CS from a Myxococcota species (enzyme)
stoichiometry N [9]: 2

non-mitochondrial citrate synthase (nmCS) of C. fasciculata (enzyme)
stoichiometry N [10]: 6

B1: non-mitochondrial citrate synthase (nmCS) of P. olsenii (enzyme)
chain: MDRLNTVAAHVAPTLTITDNRSGKKIDVKVKDGTIRATDLKQLGIQTYDPGYMNTTCCVSRISFIDGNRGVLRYRGYPIEQLAQDSSFTEVAFLLQYGELPTRGQLTQWEQDLMRHSMLHQDVATLTSAFRYDAHPMGMFVSAMAALGTLHPETNPALTSQNIYKDKAVRNKEIARILGSATTLAAMAYRHRMGRPFNTPNSDLGYTENFLYMLDVSHEGTSYRPHPKLVKALDVLFVLHAEHELNCSTSAMRHLTSSNVDVYTACAAAAGALYGPRHGGANEAVLRMLERIGSIENVPTFVDKVKQRKELLMGFGHRVYKHYDPRATIVRKIAEDVFEICGREPLIEVAMDLERIALSDPYFKDRKLYPNVDFYSGLIYKAMGFPTDMFPILFTVPRLAGWLAHWSEWIDDPENRIYRPFQVYKGYDKRDYVQVDERSEKVHSKELTVKRSAFNRRRDASLQSAAADRSEYEWIKD
stoichiometry N [11]: 6

B2: A. comosus CS Δ487-513, variant in which the extended C-terminus was deleted (domain or fragment)
chain: MEGAFDHSALARARLAVLSGHLAAVSAAGGGASPLERSPVSVQEIPPPPRNLGGSLAVIDGRSGKKFEFKISDEGTVRATDFKKITTGKNDKGLKLYDPGYLNTAPVRSSICYIDGDEGILRYRGYPIEELAESSSYPEVAYLLMYGNLPSKSQLADWEFAISQHSAVPQGVLDIIQGMPHDAHPMGVLVCAMSALSVFHPDANPALRGQDLYKSKQLRDKQIVRILGKVPTIAAAAYLRLAGRPPVLPSNNFSYSENFLYMLDSLGNRSYKPNTRLARVLDILFILHAEHEMNCSTAAARHLASSGVDVFTALAGAVGALYGPLHGGANEAVLKMLNEIGTVENIPDFIEGVKNRKRKMSGFGHRVYKNYDPRAKVIRKLAEEVFSIVGRDPLIEVAIALEKAALSDEYFIKRKLYPNVDFYSGLIYRAMGFPTEFFPVLFAIPRMAGYLAHWRESLDDPDTKIMRPQQVYTGVWLRHYTPLQERLEHHHHHH
stoichiometry N [11]: 2

B3: CS from M. sulfidovorans (type III) (Methylophaga sulfidovorans) (protein)
chain: MSDFLPGLEGVPATKSAISFIDGEKGILSYRGYPLETLAENSTFEETTLLLLDGELPTKKALNDFSQQLKDNYRIKYHIRQMMRHFPHTGHPMDMLQTAVSSLGMFYPGTECLTDANSCEDLDYVRNMTVNIIAQMAPLVAMWEHIRNGWDPVNPKHDLSVAENLLYMFNGEEPDPLMAKIMDVCLILHAEHTLNASTFAALVAGSTLATPYSVISAAIGTLSGPLHGGANQRVVGMLQEIGSPKNVESWVDEKLKNKEVIWGMGHREYKVKDPRATILHKLVEQLVAERGGHLDDMFDTALKLEEVCADRLGHKGVYPNVDFYSGILYSEMGIPEDEFTALFAVARSAGWLAHWREQISDNRIYRPTQIYVGSDMRDYTPIEER
notes: full-length with C-terminal LE-HHHHHH tag, expressed in E. coli BL21(DE3); type III CS, hexamer (three dimers)
Km [12]: 50.5 ± 5.2 µM
kcat [12]: 33.3 ± 1.8 s⁻¹

B4: CS from M. sulfidovorans (type III) (Methylophaga sulfidovorans; W150A) (protein)
chain: MSDFLPGLEGVPATKSAISFIDGEKGILSYRGYPLETLAENSTFEETTLLLLDGELPTKKALNDFSQQLKDNYRIKYHIRQMMRHFPHTGHPMDMLQTAVSSLGMFYPGTECLTDANSCEDLDYVRNMTVNIIAQMAPLVAMWEHIRNGADPVNPKHDLSVAENLLYMFNGEEPDPLMAKIMDVCLILHAEHTLNASTFAALVAGSTLATPYSVISAAIGTLSGPLHGGANQRVVGMLQEIGSPKNVESWVDEKLKNKEVIWGMGHREYKVKDPRATILHKLVEQLVAERGGHLDDMFDTALKLEEVCADRLGHKGVYPNVDFYSGILYSEMGIPEDEFTALFAVARSAGWLAHWREQISDNRIYRPTQIYVGSDMRDYTPIEER
notes: as for B3
Km ([12]; dimeric variant): 36.7 ± 5.7 µM
kcat ([12]; dimeric variant): 26.7 ± 1.1 s⁻¹

B5: CS from D. pimensis (Dp) (Deinococcus pimensis) (protein)
chain: MTTTIAKGLEGVLFTETKLTFINGTEGVLTHLGIPIQEWAEKSTFEELSFALLHGKLPTREELAAFDADLKANRAVPAELITAIRAYPRDVHPMQALRTAASHLGLLDADAEDTSAEGRYRIGVRMIAQFSTIIAAIARAQDGQDPVEPRADLTHAGNFLYMLNGQEPSAEQARLFDIALILHADHGMNASTFTAIATASTLSDMYSSVVSAIGALKGPLHGGANEAVMDMLDEIGTVDAAVPFITQKLDNKEKIMGVGHRVYKYFDPRSRVLRDYAAHVSEKQGKSHYYSILETIEKEIVERLGGKGIYPNVDFYSGVVYSDLGIKKSFFTPIFALARISGWVASVTEYTANNRLLRPDAVYVGARDQHYVEIDERK
notes: full-length with C-terminal LE-HHHHHH tag, expressed in E. coli BL21(DE3); type I CS, polydisperse oligomer (dimers to >=8 subunits)
Km [13]: 25.4 ± 3.1 µM
kcat [13]: 36.6 ± 1.1 s⁻¹
